Measured values: patent US9079867B2, “Polyazamacrocyclic compound, and a production method and a biomedical use therefor” (KYUNGPOOK NATIONAL UNIVERSITY INDUSTRY-ACADEMIC COOPERATION …, priority 2010, dated 2015)

What was measured:
[1] = Cyclic voltammetry (electrochemical experiment); format: physicochemical; conditions: irreversible (irrev); 2 mM, 100 mV/s, 0.1 M sodium acetate pH 7.0, glassy carbon electrode
Experimental: Cyclic voltammetry was carried out by using biological model SP-150 having a 3-electrode structure. The working electrode was made of glassy carbon (diameter=3 mm), the reference electrode Ag/AgCl (saturated KCl), and the counter electrode Pt wire. A sample (2 mM) of compound (30) was operated at a scanning speed of 100 mV/s in a 0.1 M aqueous sodium acetate solution adjusted to pH 7.0 with glacial acetic acid. From the solution, oxygen was removed by bubbling Ar for 30 minutes. During the measurement, the system was maintained under Ar atmosphere.

in vivo = experiment: in vivo; design: species or system female nude mice; conditions: female, nude, mouse, iv, 10 uCi, total radioactivity
Experimental: Compound ^64Cu-TE2A-c(RGDyK) (38) (10 μCi) in PBS (120 μl) was injected to the tails of female nude mice to which U87MG tumor had been transplanted. Two groups were examined at two time points [n=4 per group at 1 hr and 4 hr post injection (pi)]. The subject animals were sacrificed, and the relevant tissues and organs were removed and weighed. A dosimetric procedure was carried out by using a gamma-counter. The calculations were performed by comparing with a reference value of which the percentage of injected amount per gram was known.

Question: Which “Ered (V) for Ag/AgCl” value [1] does the source give for `O=C([O-])CN1CCCNCCN(CC(=O)[O-])CCCNCC1.[Cu+2]` [Cu-TE2A] here?
Answer: The value was −1.05 (irrev) V.

Question: Which tissue uptake at 1 h (in vivo; % ID/g Blood) does the source give for `N=C(N)NCCC[C@@H]1NC(=O)[C@H](CCCCNC(=S)Nc2ccc(CCN3CCCN(CC(=O)O)CCNCCCN(CC(=O)O)CC3)cc2)NC(=O)[C@@H](Cc2ccc(O)cc2)NC(=O)[C@H](CC(=O)O)NC(=O)CNC1=O` [^64Cu-TE2A-c(RGDyK), metal not drawn] here?
Answer: Its tissue uptake at 1 h is 0.55 ± 0.18 %ID/g.

Question: What about the tissue uptake at 4 h (in vivo; % ID/g Blood) of the same molecule?
Answer: Its tissue uptake at 4 h is 0.43 ± 0.09 %ID/g.

Question: And the tissue uptake at 1 h (in vivo; % ID/g Bone)?
Answer: The tissue uptake at 1 h was 0.66 ± 0.23 %ID/g.

Question: And the tissue uptake at 4 h (in vivo; % ID/g Bone)?
Answer: The tissue uptake at 4 h was 0.41 ± 0.06 %ID/g.

Question: What about the tissue uptake at 1 h (in vivo; % ID/g Fat) of the same molecule?
Answer: The tissue uptake at 1 h was 1.28 ± 0.55 %ID/g.

Question: What about the tissue uptake at 4 h (in vivo; % ID/g Fat) of the same molecule?
Answer: The tissue uptake at 4 h was 1.15 ± 1.08 %ID/g.

Question: And the tissue uptake at 1 h (in vivo; % ID/g Intestine)?
Answer: Its tissue uptake at 1 h is 2.14 ± 0.53 %ID/g.

Question: And the tissue uptake at 4 h (in vivo; % ID/g Intestine)?
Answer: The tissue uptake at 4 h was 2.17 ± 0.62 %ID/g.

Question: What about the tissue uptake at 1 h (in vivo; % ID/g Kidney) of the same molecule?
Answer: Its tissue uptake at 1 h is 3.47 ± 0.61 %ID/g.

Question: And the tissue uptake at 4 h (in vivo; % ID/g Kidney)?
Answer: Its tissue uptake at 4 h is 2.71 ± 0.45 %ID/g.

Question: What about the tissue uptake at 1 h (in vivo; % ID/g Liver) of the same molecule?
Answer: Its tissue uptake at 1 h is 5.45 ± 1.14 %ID/g.

Question: And the tissue uptake at 4 h (in vivo; % ID/g Liver)?
Answer: The tissue uptake at 4 h was 4.45 ± 0.65 %ID/g.

Question: And the tissue uptake at 1 h (in vivo; % ID/g Lung)?
Answer: The tissue uptake at 1 h was 1.46 ± 0.34 %ID/g.

Question: What about the tissue uptake at 4 h (in vivo; % ID/g Lung) of the same molecule?
Answer: Its tissue uptake at 4 h is 1.14 ± 0.17 %ID/g.

Question: What about the tissue uptake at 1 h (in vivo; % ID/g Muscle) of the same molecule?
Answer: The tissue uptake at 1 h was 0.49 ± 0.3 %ID/g.

Question: What about the tissue uptake at 4 h (in vivo; % ID/g Muscle) of the same molecule?
Answer: The tissue uptake at 4 h was 0.24 ± 0.11 %ID/g.

Question: What about the tissue uptake at 1 h (in vivo; % ID/g Spleen) of the same molecule?
Answer: Its tissue uptake at 1 h is 1.17 ± 0.46 %ID/g.

Question: And the tissue uptake at 4 h (in vivo; % ID/g Spleen)?
Answer: The tissue uptake at 4 h was 1.04 ± 0.46 %ID/g.

Question: What about the tissue uptake at 1 h (in vivo; % ID/g Stomach) of the same molecule?
Answer: The tissue uptake at 1 h was 1.78 ± 0.55 %ID/g.

Question: What about the tissue uptake at 4 h (in vivo; % ID/g Stomach) of the same molecule?
Answer: Its tissue uptake at 4 h is 1.03 ± 0.39 %ID/g.

Question: What about the tissue uptake at 1 h (in vivo; % ID/g Tumor 1) of the same molecule?
Answer: Its tissue uptake at 1 h is 2.98 ± 0.39 %ID/g.

Question: What about the tissue uptake at 4 h (in vivo; % ID/g Tumor 1) of the same molecule?
Answer: The tissue uptake at 4 h was 3.01 ± 1 %ID/g.

Question: What about the tissue uptake at 1 h (in vivo; % ID/g Tumor 2) of the same molecule?
Answer: Its tissue uptake at 1 h is 3.49 ± 1.67 %ID/g.

Question: What about the tissue uptake at 4 h (in vivo; % ID/g Tumor 2) of the same molecule?
Answer: The tissue uptake at 4 h was 3.32 ± 0.49 %ID/g.
